{"source": "paper PMC7164261", "binders": {"B1": {"name": "Myc-hSYNJ2BP (human SYNJ2BP full length, AA 2-145) (natural protein)", "chain": "NGRVDYLVTEEEINLTRGPSGLGFNIVGGTDQQYVSNDSGIYVSRIKENGAAALDGRLQEGDKILSVNGQDLKNLLHQDAVDLFRNAGYAVSLRVQHRLQVQNGPIGHRGEGDPSGIPIFMVLVPVFALTMVAAWAFMRYRQQL"}}, "key": {"[1]": {"molecular_target": "T1, Flag-ΔD1-TMIGD1 (human TMIGD1 lacking the membrane-distal Ig-like domain, AA 115-262) (human) (UniProt Q6UXZ0)", "T1 sequence": "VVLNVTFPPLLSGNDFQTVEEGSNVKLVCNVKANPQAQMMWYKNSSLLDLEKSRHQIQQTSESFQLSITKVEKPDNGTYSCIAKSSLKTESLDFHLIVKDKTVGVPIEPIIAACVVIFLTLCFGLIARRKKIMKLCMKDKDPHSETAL"}, "[2]": {"molecular_target": "T2, Flag-TMIGD1/WT (human TMIGD1, AA 30-262) stably expressed in MDCKII-TetOFF cells (human) (UniProt Q6UXZ0)", "T2 sequence": "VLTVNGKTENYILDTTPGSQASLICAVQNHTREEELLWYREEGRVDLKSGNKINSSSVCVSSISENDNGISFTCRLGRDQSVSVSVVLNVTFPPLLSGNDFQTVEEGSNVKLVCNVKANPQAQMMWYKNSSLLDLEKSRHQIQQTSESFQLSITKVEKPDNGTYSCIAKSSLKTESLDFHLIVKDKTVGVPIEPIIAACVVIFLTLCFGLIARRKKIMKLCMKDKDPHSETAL"}}}
{"binder": "B1", "values": [{"measurement": "recruitment of ΔD1-TMIGD1 from cell-cell contacts to mitochondria in Myc-SYNJ2BP-expressing MDCKII-TetOFF cells (immunofluorescence microscopy, fraction of cells)", "setting": "[1]", "value": "> 90", "unit": "%"}, {"measurement": "recruitment of TMIGD1/WT from cytoplasmic compartments to mitochondria in Myc-SYNJ2BP-expressing MDCKII-TetOFF cells (immunofluorescence microscopy, fraction of cells)", "setting": "[2]", "value": 75, "unit": "%"}]}
